# Source: the nanobody polyreactivity screen of Harvey et al. (2022)
# Assay: yeast display, Sf9 membrane polyspecificity reagent, FACS + sequencing; frameworks hold sequencing errors
# How it was run: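 Nanobodies came from a synthetic yeast display library in Saccharomyces cerevisiae BJ5465, induced with galactose for 36–48 hours and stained for 1 hour at 4 °C with 10% biotinylated, detergent-solubilized Sf9 membrane reagent. Cells were enriched on streptavidin microbeads and then FACS-sorted, with low and high (top ~1%) gates set on anti-HA fluorescence for expression and streptavidin fluorescence for reagent binding. Each polyreactivity label reflects the gate a clone came from. Genes were amplified by colony PCR, sequenced by MiSeq 2 × 250 and filtered by CDR length.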
row,Sequence,polyreactivity (PSR sort gate)
1,QVQLVESGGGLLQAGGSLRLSCAASGFIFGGNAMGWYREAPGKERELVAAIRSGGSTYYADSVKVRFTISRDNAKNTVYLQMISLKPLDTAVDYCAVRLRYAYRARGNYWGQGTQVTVSS,low polyreactivity
2,QVQLVESGGGLVQAGGSLRLSCAASGRTFYSYTMGWYRQAPGKDRELVAAITRSGGRTYYADSVKGRFTISRDNAKNTVYLQMNSLKPDDTAVYYCAKGWVSYWRYKNEYWGQGTQVTVSS,high polyreactivity
3,QVQLVESGGGLVQAGGSLRLSCDDSGRIFGGYGMGWYTQAPGKEGELVAAISARGGSTYYADSVKGRFTISRDNAKNTVYLQMNSLKPEDTEFYYCAAVEASSRGYYDYDYWGQGTQVTVSS,low polyreactivity
4,QVQLVESGGGLVQAGGSLRLSCAASGFILSPNTMGWYRQAPGKERALVAAISSDVSTYADSVKGRFTISRDNAKNTVYLQMNSLKPEDTAVYYCNADAFGYASYEYWGQGTQVTVSS,low polyreactivity
5,QVQLVESGGGLVQAGGSLRLSCAASGFTFGNNGMGWYRQAPGKERELVATISWSGGSTYADSVKGRFTISRDNAKNTVYLQMNSLKPEDTAVYYCAAPYLSLYWYDYWGQGTQVTVSS,low polyreactivity
6,QVQLVESGGGLVQAGGSLRLSCAASGFTFGYNAMGWYRQAPGKERELVAAITSGGSTNYADSVKGRFTISRDNAKNTVYLQMNSLKPEDTAVYYCAVDPVRGRDYSWMDYWGQGTQVTVSS,low polyreactivity
7,QVQLVESWGGLVQAGGSLRLSCAASGLILFAYTMGWYRQAPGKERELVAGIDGSGGTTYYADSVKGRFTISRDNAKNTVYLQMNSLNPEDTAVYYCAASGFRWQGVKRMDYWGQGTQVTVSS,low polyreactivity
8,QVQLVESAGGLVQAGGSLRLSCAASGRIFGYYAMGWYRQAPGKERELVARISRGGSTYYADSVKGRFTISRDNAMNTVYLQMTSLKPEDTGVYYCAATRSGYTSYTDDSWGQGTQVTVSS,high polyreactivity
9,QVQLVESGGGLVQAGGSLRLSCAASGRIFRLNAMGWYRQAPGKERELVAAITVSDSSTYADSVKGRFTISRDNAKNTVYLQMNSLKPEDTAVYYCNRDTYTEYAHSWRGWSVIFDYWGQGTQVTVSS,high polyreactivity
10,QVQLVESGGGLVQAGGSLRLSCAAYGLTFHYYDMGWYRQAPGKERELVAAISAGGVNTYYADSVKGRFTISRDNAKNTVYLQMNSLKPEDTAVYFCAADYYVDVWSYTYGYWGQGTQVTVSS,high polyreactivity
11,QVQLVESVGGLVQAGGSLRLSCAASGGIFDTYVMGWYRQAPGKERELVAAISSSGSTTYADSVKGRFTISRDNAKNTVYLQMNSLKPEDTAVYYCNADYSTIWRYDYWGQGTQVTVSS,low polyreactivity
12,QVQLVESGGGLVQAGGSLRLSCAASGFIFSRYAMGWYRQAPGKERELVAAINLSGTSTYYADSVKGRFTISRDNAKNTVYLQMNSLKPEDTAVYYCAATSSYIYPYGYWGQGTQVTVSS,high polyreactivity
13,QDQLVESGGGLVQAGGSLRLSCAASGFTLATYAMGWYSPAPGKEREWVAAITRSGGSTDDADSVKGRFTISRDIAKNTVYVQMNSLKPEDTAVYYCNAREVRYEYNYWGHGTQVTVSS,low polyreactivity
14,QFQLVESGGGLVQAGGSLRLSCAASGFIFSTYTMGWYRQAPGKERELVAAISSGGGTYYADSVKGRFTISRDNAKNTVYLQMNSLKPEDTAVYYCAALVYSSYPAGWYDYWGQGTQVTVSS,high polyreactivity
15,QVQIVESGGGLVQAGGSLRLSCAASGFTCRGNAMGWYRQAPGKERELVATISYNAGSTYYADAVKGRFTISRDNAKNTVYFQMNSLNPEDTAVYYCAVELDSEPDYEPWTEYDYWGQGTQVTVSS,low polyreactivity
16,QVQLVESVGGLVQAGGSLRLSCPASGINFWNYAMGRYRQAPGKERELVAVISRGGSTYYADSVKGRFTISRDNAKNTVYLQMNSLKPEDNAVYYCAADSVVWEMEYWGQGTLVTVSS,high polyreactivity
17,QVQLVESGGVLVQAGGSLRLSCAASGSTFVYNAMGWYRQAPGKERELVARISWSVTDTYYADSVKGRFTISRDNAKNTVYLQMNSLKPEDTAVYYCNTDVTYSHLVFGYDYWGQGTQVTVSS,low polyreactivity
18,QVQVVESGGGIVQAGGSLRLSCAASGSIFETYAMGWYRQAPGKESELVAAISRTSGRTYYADSVKGRFTISRDNAMNSVYLQMNSLKPDDTAVYYCAAVVRNPGTYDYWGQGTQVTVSS,high polyreactivity
19,QVQLVESGGGLDQAGGSLRLSCAASGRIFFGNVMGWYRQATGKDSELVAAITKRVGRTYYADSVKGRFTISRDNAKNTVYLQMNSLKPEDTAVYYCNAVTPLSYCRAAPLEMDYWGQGTQVTVSS,high polyreactivity
20,QVQLEEAVGGLLQAGGSLRFSCAASGGLFWVYAMGRYRQAPGKERELVAAISNSDTSTSYADSVKGRFTISRDNAQNTVYLQMNSLKAEDTAVYYCKADSPSLSGDSWGQGTQVNVSS,low polyreactivity
21,QVQLVESGGGLVQAGGSLRLSCAASGFTFPSYDMGWYRQAPGKERELVAAISWSGTSTYYADSVKGRFTISRDNAKNTVYLQMNSLKPEDTAVYYCNAQYSYLWGEYGYWGQGTQVTVSS,high polyreactivity
22,QVQLVESGGGLVQAGGSLRLSCAASGRIFDYYAMGWYRQAPGKERELVARISSSGGSTYYADSVKGRFTISRDNAKNTVYLQKNSLKPEDTAVSYCDARSPRYWLRLREYWGQGTQVTVSS,high polyreactivity

row,Sequence,polyreactivity (PSR sort gate)
1,QDQHVESGGGLVQAGGSLRLSCAASGSTFAFYAMGWYRQAPGKERELVAAINYGGTSTYYADSVKGRFTISRDNAKNTVYLQMNSLKPEDTAVYYCAARRPTSPRRYESWGQGTQVTVSS,high polyreactivity
2,QVQLVESGGGLVQAGGSLRLSCAASGRTFGKYARGWYRQAPGKERELVASITFSSGSTYYADSVKGRFTISRDNAKNTVYLQMNSLKPEDTAVYYCAKRGWGIYDYWGQGTQVTVSS,low polyreactivity
3,QVQLVESGGGLVQAGGSLRLSCAASGIIFSRYAMGWYRQAPGKERELVAVISSSGGRTYYADSVKGRFTISRDNAKNTVYLQMNSLKPEDTAVYYCAAYTRTGSHLRAYYYWGQGTQVTVSS,high polyreactivity
4,QVQLVESGAGLVQAGGSLRLSCAASGSTFPFYDMGWYRQAPGKEREFVAVISSSGGSTYYADSVKGRFTISRDNAKNTVYLQMNSLKPEDTAVYYCARRYPGRWYDYWGQGTQVTVSS,high polyreactivity
5,QVQLVESGGGLVQAGGSLRLSCAASGRIFTRYAMGWYRQAPGKERELVAVITRSGGSTYYADSVKGRFTISRDNAKNNVDLQMNSLKPEDTAVYYCAAKYYGEMYYWGQGTQVTVSS,low polyreactivity
6,QVQLVESGGGLVQAGGSLRLSCAASGFTFFHYAMGWYRQAPGKERELVAAINTRGSRTYYADSVKGRFTISRDNAKNTVYLQMNSLKPEDTAVYYCAADSVQVYAWQYYYWGQGTQVTVSS,high polyreactivity
7,QVQLVESGGGLVQAGGSLRLTCAASGSTFAGNAMGWYRQATGKERELVAAIDSSTGSTYYADSVKGRFTISRDNAKNTVYLQMNSLKPEDSAVYYCNKTSFLVKLDYWGQGTQVTVSS,low polyreactivity
8,QVQLVESGGGLVQAGGSLRLSCAASGRIFTQYTMGCYRQAPGKERELVAAINYSGGRTNYADSVKGRFTISRDNAKNTVYLQMNSLKPEDTAVYYCAAGYRRATYGYWGQGTQVTVSS,high polyreactivity
9,QVQLVESGGGLVQAGGSLRLSCAASGSTFYVNDMGRYRQAPGNERELVAAITWGVGDTYYADSVKGRFTISRDNAKNTVYLQMNSQKPEDTAVYYCAADTSYYYAYTQMEYWGQGTQVTVSS,low polyreactivity
10,QVQLVESGGGLVQAGGSLRLSCAASGRIFSGYAIGWYRQAPGKERELVAAITSGGSTNYADSVKGRFTISRDNAKNTVYLQMNSLKPEDTAVYYCAADYREVSTTAYYYWGQGTQVTVSS,low polyreactivity
11,QVQLVESGGGLVQAGGSLRLSSAASGRTFYFYAMGWYRQAPGKERELVADIRGITGSTYYADSVKGRFTISRDNAKNTVYLQMNSLKPEDTAVYYCNAYPYIARAPYEYWGQGTQVTVSS,high polyreactivity
12,QVQLVESGGGLVQAGGSLRLSCAASGRTFYGYAMGWYRQAPAKERELVAAITWSVGRTYYADSVKGRFTISRDNAKNTVYLQMNSLKPEDTAVYYCAAQRAGLFNYWGQGTQVTVSS,low polyreactivity
13,QVQLVDSGGGLVQAGGSLRLSCAASGFIFGYYAMGWYRPAPGKERELVAAISQSTGSTYYADSVKGRFTISRDNAKNTVYLQMNSLKPEDTAVYYCNAEGPEFTTWGYVYWDWGYGYWGQGTQVTVSS,low polyreactivity
14,QVQLVESGGGLVQAGGRSCAASGSTFRPYAMGWYRQAPGKEREFVAAISWRGGRTYYADSVKGRFTISRDNAKNTVYLQMNSLKPEDTAVYYCAVDPSIYRLSAYYYDYWGQGTQVTVSS,low polyreactivity
15,QDQLVESGGGLVQAGGSLRLSCAASGIILDHYSMGWYRQAPGKERELVAAISSGTRTNYADSVKGRFTISRDNAKHTVSLQMNSLKPEDTAVYYCAATIYRRYRSKYSITSYWGQGTQVTVSS,high polyreactivity
16,QVQLVESGGGLVQAGGSLRLSCAASGLTFTGYAMGWYRQAPGKERELVASISRSGASTFYADSVKGRFTISRDNAKNTVYLQMNSLKPEDTAVYYCAAVPGWLTSRYYYWGQGTHVTVSS,high polyreactivity
17,QVQLVESGGGLVQAGGSLLLSCAASGSIYVNNAMGWYRQAPGKERELVAAISRSGGSTYYADSVKGRFTISRDSAKKTVYLQMNSLKPEDTAVYYCATVHRSSTPPEFNYSGQGTQVTVSS,high polyreactivity
18,QVQLVESGGGLVQAGGSLRLSCAASGTIFGEYAMGWYRQAPAKERELVADITTGGNTNYADSVKGRFTISRDNAKNTVYLQMNSLTPEATAVYYCAADFFSRDWGQGTQVTVSS,low polyreactivity
19,QVQLVESGGGLAQAGCSLRLSCAASGRLFRGNAMGGYRQAPGKERELVARITGNDGDTYYADSVKGRFTISRDNAKNTVYLQMNSLKPEDTAVYYCATDTSSYRRRYYYWGQGTQVTVSS,low polyreactivity
20,QVQLVESGGGLVQAGGSLRLSCADSGIIFTQYAMGWYRQAPGKERELVAGISKSGGSTYYADSVKGRFTISRDNAKNTVYLQMNSLKPEDTAVYYCAAPVPKTDKLLRMYYWGQGTQVTVSS,high polyreactivity
21,QVQLVESGGGLVQAGGSLRISCAASGSTFSYYAMGWYRQAPGKERELVAAISSRGGSTYYADSVKGRFTISRDNAKNTVYLQMNSLKPEDTAVYYCAAVRNRHGYDYWGQGTQVTVSS,high polyreactivity
